assay: yeast display, Sf9 membrane polyspecificity reagent, FACS + sequencing; frameworks hold sequencing errors
How it was run: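 In a synthetic yeast display library (Saccharomyces cerevisiae BJ5465), nanobody expression was induced with galactose for 36–48 hours. FACS gates were set low and high (top ~1%) using anti-HA fluorescence for expression and streptavidin fluorescence for binding of the Sf9 membrane reagent. Each polyreactivity label is drawn from the gate of origin.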

| Sequence | polyreactivity (PSR sort gate) |
| --- | --- |
| QVQLVESGGGLVQAGGSLRLSCAASGRISYSYAMGWYRQAPGKERELVAAISYSGGTTYYADSVKGRFTISRDNAKNTVYLQMNSLKPEDTAVYYCAVDGYDTYGFNGYYIRSGYWGQGTQVTVSS | low polyreactivity |
| QVQLVESGGGLVQAGGSLRLSCAASGRITYYAMGWYRQAPGKERELVAAITWSGGRTYYADSVKGRFTISRDNAKNTVYLQMNSLKPEDTAVYYCAKTRIYSKHWTEPYFYRVDSWGQGTQVTVSS | high polyreactivity |
| QVQLVESGGGLVQAGGSLRLSCAASGRIVGRYAMAWYRQAPGKERELVAAISSGTSTNYADSVKGRFTISRDNAKNTVYLQMNSLKPEDTAVYYCAVVLYRHWWYDYWGKGTQVTVSS | high polyreactivity |
| QVQLVESGGGLVQAGGSLRLSCAASGRIVSHYAMGWYRQAPGKERELVAAISRSGSTYYADSVKGRFTISRDNAKNTVYLQMNSLKPEDTAVYYCATRLYTVGPYGYWGQGTQVTVSS | low polyreactivity |
| QVQLVESGGGLVQAGGSLRLSCAASGRIVYSNTMGWYRQAPGKERELVARIDTGGGSTYADSVKGRFTISRDNAKNTVYLQMNSLKPEDTAVYYCNKKGRWRSWGSTSLVSMDYWGQGTQVTVSS | low polyreactivity |
| QVQLVESGGGLVQAGGSLRLSCAASGRIVYYNVMGWYRQAPGKEREFVAAISTRTGSTYYADSVKGRFTISRDNAKNSVYLQMNRLKPEDTAVYYCAAPYRAYSYDYWGQGTQVTVSS | high polyreactivity |
| QVQLVESGGGLVQAGGSLRLSCAASGRIWVNALGWYRQAPGKEREFVAAISTSSASTYYADSVKGRFTISRDNAKNTVYLQMNSLKPEDTAVYYCASRYLGKKYYWFKTMDYWGQGTQVTVSS | high polyreactivity |
| QVQLVESGGGLVQAGGSLRLSCAASGRIYGNAMGWYRQAPGKERELVAAISWSGGSTYYADSVKGRFTISRDNAKNTVYLQMNSLKPEDTAVYYCAATYPQGKYTYGRSYDYWGQGTQVTVSS | high polyreactivity |
| QVQLVESGGGLVQAGGSLRLSCAASGRIYGVYVMGWYRQAPGKERELVAAISWSGSHTYYADSVKGRFTISRDNAKNTVYLQMNSLKPEDTAVYYCKADSYPDYTGPGLDWYDYWGQGTQVTVSS | low polyreactivity |
| QVQLVESGGGLVQAGGSLRLSCAASGRIYGYAMGWYRQAPGKEREFVAVISRRGSSTYYADSVKGRFTISRDNAKNTVYLQMNSLKPEDTAVYYCAAGKFYYSIGPGYDYWGQGTQVTVSS | high polyreactivity |
| QVQLVESGGGLVQAGGSLRLSCAASGRIYLYAMGWYRQAPRKERELVASISYSGGSTYYADSVKGRFTISRDNAKNTVYLQMNSLKPEDTAVYYCATRRAGSCPPYGYWGQGSQVTVSS | high polyreactivity |
| QVQLVESGGGLVQAGGSLRLSCAASGRIYNRNAMGWYRQAPGKERDLVAAITYRGGSTYYADSVKGRFTISRDNAKNTVCLQMNSLKPEDTAVYYCAKDVKQWSVSASYRFGYWGQGTQVTVSS | high polyreactivity |
| QVQLVESGGGLVQAGGSLRLSCAASGRIYPYAMGWYRQAPGKERELVAAITSRGGTTYYADSVKGRFTISRDNAKNTVYLQMNSLKPEDSAVYYCAADQHIRVSWYLQMYYWGQGTQVTVSS | low polyreactivity |
| QVQLVESGGGLVQAGGSLRLSCAASGRIYRYAMGWYIQAPGKERELVASISYSGGSTYYADSVKGRFTISRDNAKNTVYLQMNSLKPEDTAVYYCAARTRHVHYGYWGQGTQVTVSS | high polyreactivity |
| QVQLVESGGGLVQAGGSLRLSCAASGRIYRYVMGWYRQAPGKERELVATITGRGGSTYYADSVKGRFTISRDNAKHTVYLQMNILKPEDTAVYYCAAAGRGSWTTYRFDYWGQGTQVTVSS | high polyreactivity |
| QVQLVESGGGLVQAGGSLRLSCAASGRIYSVYTMGWYRQAPGKERELVATISSGGRTNYADSVKGRFTISRDNAKNTVYLQMNSLKPEDTAVYYCAADWVYPPGLKDSVHFGEYDYWGQGTQVTVSS | low polyreactivity |
| QVQLVESGGGLVQAGGSLRLSCAASGRIYSWYAMGWYRQAPGKERELVAVISRGVSTYYADSVKGRFTISRDNAKNTVYLQMNSLKPEDTAVYYCAAYSGGRYYYWGQGTQVTVSS | low polyreactivity |
| QVQLVESGGGLVQAGGSLRLSCAASGRIYTYYAMGWYRQAPGKERELVAAISSGGSTYYADSVKGRFTISRDNAKNTVYLQMNSLKPEDTAVYYCNRVRRGVWRQDDYWGQGTQVTVSS | high polyreactivity |
| QVQLVESGGGLVQAGGSLRLSCAASGRIYWYYAMAWSRQAPGKERELVAAINSGGNTNYADSVKGRFTISRDNAKNTVYLKMNSLKPEDTAVYYCAKGRWPLLLSKDLYYWGQGTQVTVSS | high polyreactivity |
| QVQLVESGGGLVQAGGSLRLSCAASGRLFNEYAMGWYRQAAGNVRALVAGITWSGGSTSYADSVKGRFTISRDYAKNTVYLQMIILKPEDTAVYYCAADVYRRLRRYRYFYWGQGTQVTVSS | low polyreactivity |
| QVQLVESGGGLVQAGGSLRLSCAASGRLFWYNAMGWYRQAPGKERELVARITRGTRTYYADSVKGRFTISRDNAKNTVSLQMNSLKPEDTAVYYCRLQLSYTPHYDYWGQGTQVTVSS | high polyreactivity |
| QVQLVESGGGLVQAGGSLRLSCAASGRLSDNVMGWYRQAPGKERELVAAISSSGGTTYYADSVKGRFTISRDNAKNTVYLQMNSLKPEDTAVYYCNARTRGKMDYWGQGTQVTVSS | high polyreactivity |

| Sequence | polyreactivity (PSR sort gate) |
| --- | --- |
| QVQLVESGGGLVQAGGSLRLSCAASGRMFGRYVMGWYRQAAGKERELVASISTRGGRTYYADSVKGRFTISRDIAKNTVYLQMNSLKPEDTAVYYCAVVYPRFGAYDYWGQCTQVTVSS | high polyreactivity |
| QVQLVESGGGLVQAGGSLRLSCAASGRMFKINAMGCYRQAPGKERELVASIRTSSGSTYSADSVKGRFTLSRDNAKNTVYLQMNSLKPEDTAVYYCATQYRYYNHFVTPFTRYGYWGQGTQVTVSS | high polyreactivity |
| QVQLVESGGGLVQAGGSLRLSCAASGRNFAKYAMGWYRQAPGKERELVAAINSSGGSTYYADSVKGRFTISRDNAKNTVYLQMNSLKPEDTAVYYCAALGIGSYRRYSGYDYWGQGTQVTVSS | low polyreactivity |
| QVQLVESGGGLVQAGGSLRLSCAASGRNFAWYAMGWYRQAPGKEREFVAAITYRAARTYYADSVKGRFTISRDNAKNTVYLQMNSLKPEDTAVYYCNAVGFDQPRYYYWGQGTQVTVSS | high polyreactivity |
| QVQLVESGGGLVQAGGSLRLSCAASGRNFAYYAMGWYRQEPGKERELVAVISKSGGSTNYADSVKGRFTISRDNAKNTVYLQMNSLKPEDTAVYYCAKRAYDPEMYYWGQGTQVTVSS | low polyreactivity |
| QVQLVESGGGLVQAGGSLRLSCAASGRNFFRYAMGWYRQAPGKERELVATISRSGGTYADSVKGRFTISRDNAKNTVYLQMNSLKPEDTAVYYCNARTLYAYITRDYWGQGTQVTVSS | high polyreactivity |
| QVQLVESGGGLVQAGGSLRLSCAASGRNFFTYAMGWYRQAPGKERELVASITGSGGSTYYADSVKGRFTISRDNAKYTVYLQMNSLKPEDTAVYYCAAALFRRQLYRKFYYWGQGTQVTVSS | low polyreactivity |
| QVQLVESGGGLVQAGGSLRLSCAASGRNFGWYAMGWYRQATGKERELVAAITSGSRTSYADSVKGRFTISRDNAKNTVYLQMNSLKPEDTAVYYCARRSYGIYYRSADDSWGQGTQVTVSS | high polyreactivity |
| QVQLVESGGGLVQAGGSLRLSCAASGRNFHKYAMGWYRQAPGKERELVAAITGSGVRTYYADSVKGRFTISRDNAKNTVYLQMNSLKPEDTAVYYCNADSYYGNGDYWGQGTQVTVSS | high polyreactivity |
| QVQLVESGGGLVQAGGSLRLSCAASGRNFIVNAMGWYRQAHGKEREFVAAITSRGGITYYADSVKGRFTISRDNAKNTVYLQMNSLKPEDTAVYYCAAGYITWGSGNWVVTPYDYWGQGTQVTVSS | high polyreactivity |
| QVQLVESGGGLVQAGGSLRLSCAASGRNFNFNTIGWYRQAAGKEREFLAAITFRGVRTYYADSVKGRFTISRDNAKNTVYLQMISLKPEDTAVYYCATQARLYGGYDRYAGSYDYWGQGTQVTVSS | high polyreactivity |
| QVQLVESGGGLVQAGGSLRLSCAASGRNFPRYAMGWYRQAPGKERELVAAISWRGGSTRYADSVKGRFTISRDNEKNTVYLQMNSLKPEDTAVYYCAAEFWFFPGWAYEYWGQGTQVTVSS | high polyreactivity |
| QVQLVESGGGLVQAGGSLRLSCAASGRNFPTKAMGWYREAPGTERELVAAITRSGSTYYADSVKGRFTISRDNAKNTVYLQMNSLKPEDTAVYYCAAYAYIFLDWGGYPYYLYEYDDWGQGTQVTVSS | low polyreactivity |
| QVQLVESGGGLVQAGGSLRLSCAASGRNFRRYTMGWYRQAPGKERELVATISSGGSTYADSVKGRFTISRDNAKNTVYLQMNSVKPEDSAVYYCAAQTWGSGYGNIGRRRHDYWGQGTQVTVSS | high polyreactivity |
| QVQLVESGGGLVQAGGSLRLSCAASGRNFVYNAMGWYRQAPGKERELVAAITWGGGSTYYADSVKGRFTISRDKAKNTVYLQMNSLKPEDTAVYYCAADGVRKFPNSRYDYWGQGTQVTVSS | low polyreactivity |
| QVQLVESGGGLVQAGGSLRLSCAASGRNFWFNAMGWYRQAPGKVRELVAAISGGSTNYADSVKGRFTISRDNAKNHVYLQMNSLKPEDTAVYYCAARYLLRYNWGQGTQVTVSS | high polyreactivity |
| QVQLVESGGGLVQAGGSLRLSCAASGRNFYRNAMGWSRQAPGKERELVAAITGSGGITYYADSVKGRFTISRDNAKYTVYLQMNRLKPEDTGVYYCNARYYSHRYDYWGQGTQVTVSS | high polyreactivity |
| QVQLVESGGGLVQAGGSLRLSCAASGRNFYSNAMGWYRQAPGKERELVAAIRWRDGSTYYADSVKGRFTISRDNAKNTVYLQMNSLKPEDTAVYYCAAVYWGEEYEYWGQGTQVTVSS | low polyreactivity |
| QVQLVESGGGLVQAGGSLRLSCAASGRNILPYAMGWYRPSPGKERELVAAISVSGVITYYAESVKGRFTISRDNAKNTVYLQMNSLKPEDTEVYYCASDYTPRRWGRLYDYWGQGTQVTVSS | low polyreactivity |
| QVQLVESGGGLVQAGGSLRLSCAASGRNILVYAMGWYRQAPGKERELVAAISSGGSTYYADSVKGRFTISRDNAKNTVYLQMNSLKPEDTAVYYCAAQFDVYYSRQPYDYNRSGYWGQGTQVTVSS | low polyreactivity |
| QVQLVESGGGLVQAGGSLRLSCAASGRNLLYYGMGWYRQAPGKERELVAVISRGGSTYYADSVKGRFTISRDNAKNTVYLQMNSLKPEDTAVYYCAKRIYYGGVATKSLMDYWGQGTQVTVSS | high polyreactivity |
